Values of other authors, collected in patent US20240082365A1, “MULTIDISCIPLINARY TREATMENT OF CHRONIC DISEASE USING REGENERATIVE CELLS AND TECHNOLOGIES” (priority 2022, published 2024).

Assays:
[1] = tested on: metastatic renal cell carcinoma (RCC) and metastatic melanoma; settings: high-dose, e.g. IV bolus 600,000 IU/kg every 8 hours for up to 14 doses
[2] = subcutaneous, one-compartment model

**Q.** Which results are given for aldesleukin?
**A.** antitumor activity [1]: demonstrated antitumor activity; time at which peak plasma levels are reached (after SC administration): 2 to 6 h; absorption half-life [2]: 0.75 h; elimination half-life [2]: 3 to 5 h
